Here are results for one molecule from patent publication US20100009014A1, “Use of composition for manufacture of medicant and method for inhibiting formation of body fat” (Maxluck Biotechnology Corp., priority 2008, published 2010).

The nature of this assay: Epididymal fat weight and body weight, lactoferrin vs trivalent chromium vs combination (Test Example 5). Format: in vivo, C57BL/6JNarl mice. The note with it: fed 7 weeks; for Body weight / Epididymal fat weight: high-fat diet. As to the method: The C57BL/6JNarl mice (N=70) are fed with a mouse diet (high-fat Rodent TestDiet, PMI Nutrition International Inc., MO, U.S.A.; 67% of calories provided by fat). The C57BL/6JNarl mice are randomly divided into seven groups and there are ten mice in each group. In one experimental group, the mice are fed with the mouse diet mixed with lactoferrin (NZMP lactoferrin, New Zealand, low dose: 40 mg/kg BW/day, high dose: 80 mg/kg BW/day). In another experimental group, the mice are fed with the mouse diet mixed with trivalent chromium (chromium (III) chloride hexahydrate, low dose: 40 μg/kg BW/day Cr^3+, high dose: 80 μg/kg BW/day Cr^3+). In yet another experimental group, the mice are fed with the mouse diet mixed with a lactoferrin/trivalent chromium composition (low dose: lactoferrin of 40 mg/kg BW/day with Cr^3+ of 40 μg/kg BW/day, high dose: lactoferrin of 80 mg/kg BW/day with Cr^3+ of 80 μg/kg BW/day). In the control group, the mice are fed with the mouse diet containing no other additive. The C57BL/6JNarl mice aged 8 weeks are fed for 7 weeks and then sacrificed to measure the weight of Epididymal fat and body weight, as shown in Table 5.
Accordingly, it can be known that the lactoferrin/trivalent chromium composition provides more significant efficiency in comparison to single lactoferrin or trivalent chromium.

[1] abbreviates: High dose (lactoferrin 80 mg/kg BW/day and/or Cr3+ 80 μg/kg BW/day).
The mark [2] stands for this setting: Low dose (lactoferrin 40 mg/kg BW/day and/or Cr3+ 40 μg/kg BW/day).

B1: Lactoferrin: NZMP lactoferrin, New Zealand; glycoprotein capable of binding metal ions, given alone as comparison (protein, UniProt P24627 20-708, looked up)
Lactotransferrin: APRKNVRWCTISQPEWFKCRRWQWRMKKLGAPSITCVRRAFALECIRAIAEKKADAVTLDGGMVFEAGRDPYKLRPVAAEIYGTKESPQTHYYAVAVVKKGSNFQLDQLQGRKSCHTGLGRSAGWIIPMGILRPYLSWTESLEPLQGAVAKFFSASCVPCIDRQAYPNLCQLCKGEGENQCACSSREPYFGYSGAFKCLQDGAGDVAFVKETTVFENLPEKADRDQYELLCLNNSRAPVDAFKECHLAQVPSHAVVARSVDGKEDLIWKLLSKAQEKFGKNKSRSFQLFGSPPGQRDLLFKDSALGFLRIPSKVDSALYLGSRYLTTLKNLRETAEEVKARYTRVVWCAVGPEEQKKCQQWSQQSGQNVTCATASTTDDCIVLVLKGEADALNLDGGYIYTAGKCGLVPVLAENRKSSKHSSLDCVLRPTEGYLAVAVVKKANEGLTWNSLKDKKSCHTAVDRTAGWNIPMGLIVNQTGSCAFDEFFSQSCAPGADPKSRLCALCAGDDQGLDKCVPNSKEKYYGYTGAFRCLAEDVGDVAFVKNDTVWENTNGESTADWAKNLNREDFRLLCLDGTRKPVTEAQSCHLAVAPNHAVVSRSDRAAHVKQVLLHQQALFGKNGKNCPDKFCLFKSETKNLLFNDNTECLAKLGGRPTYEEYLGTEYVTAIANLKKCSTSPLLEACAFLTR
B1: the “Epididymal fat weight and body weight vs control group (in words)” value is “cannot achieve significant efficiency”. For the same molecule, under setting [1], the Body weight is listed as 27.9 ± 1.37 g and the Epididymal fat weight was 0.82 ± 0.2 g. In addition, under setting [2], the Body weight is 27.7 ± 2.19 g and the Epididymal fat weight worked out at 0.72 ± 0.28 g.
